# Target: T1, human C-C motif chemokine receptor 8 (CCR8) (human, UniProt P51685 1-355)
# T1 construct: whole, on cells; also called human CCR8; hCCR8
# Assay: FACS (MFI-PE) on CHO-K1 hCCR8 cells, bars at five doses
# Protocol: PE Goat anti-Human IgG Fc Secondary Antibody (eBioscience™, Invitrogen) was added to each well and incubated at 4° C. for 30 mins. Samples were washed twice with FACS buffer. The mean florescence intensity (MFI) of PE was evaluated by MACSQuant Analyzer 16.
# T1 sequence (P51685 whole entry): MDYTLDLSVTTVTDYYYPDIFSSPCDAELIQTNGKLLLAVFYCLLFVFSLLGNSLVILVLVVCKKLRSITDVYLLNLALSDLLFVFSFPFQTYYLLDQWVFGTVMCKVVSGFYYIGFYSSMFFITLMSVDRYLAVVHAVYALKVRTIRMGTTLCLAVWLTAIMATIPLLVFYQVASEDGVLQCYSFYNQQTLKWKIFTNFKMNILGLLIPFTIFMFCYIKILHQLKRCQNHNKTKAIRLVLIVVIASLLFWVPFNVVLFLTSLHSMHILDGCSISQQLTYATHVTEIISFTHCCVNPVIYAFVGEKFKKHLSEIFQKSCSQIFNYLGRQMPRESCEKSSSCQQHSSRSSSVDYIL
row,Binder,binding result
1,"Hu195H8D10-7 (antibody, V domains shown, humanized) VH: EVQLVESGGGLVQPGGSLRLSCAASGFNFNTYVMNWVRQAPGKGLEWVARIRTKSNNYATYYADSVKDRFTISRDDSKNSLYLQMNSLKTEDTAVYYCVSGTITRLGGGLDYWGQGTLVTVSS VL: DIVMTQSPLSLPVTPGEPASISCRSSKRLLHSNGNTYLYWYLQKPGQSPQLLIYRMSNLASGVPDRFSGSGSGTAFTLKISRVEAEDVGVYYCMQHLEYPFTFGGGTKLEIK",binds
2,"Hu200C9B9-6 (antibody, V domains shown, humanized) VH: EVQLVESGGGLVQPGGSLRLSCAASGFSFNTYVMNWVRQAPGKGLEWVARIRTKSNNYATFYVDSVKDRFTISRDDSKNSLYLQMNSLKTEDTAVYYCVSGTITRLGAGLDYWGQGTLVTVSS VL: DIVMTQSPLSLPVTPGEPASISCRSSKSLLHSNGNTYLYWFLQKPGQSPQLLIYRMSNLASGVPDRFSGSGSGTDFTLKISRVEAEDVGVYYCMQHLEYPFTFGGGTKLEIK",binds
3,"Hu195H8D10-3 (antibody, V domains shown, humanized) VH: EVQLVESGGGLVQPGGSLRLSCAASGFNFNTYVMNWVRQAPGKGLEWVGRIRTKSNNYATYYADSVKDRFTISRDDSKNSLYLQMNSLKTEDTAVYYCARGTITRLGGGLDYWGQGTLVTVSS VL: DIVMTQSPLSLPVTPGEPASISCRSSKRLLHSNGNTYLYWYLQKPGQSPQLLIYRMSNLASGVPDRFSGSGSGTAFTLKISRVEAEDVGVYYCMQHLEYPFTFGGGTKLEIK",binds
4,"Hu195H8D10-4 (antibody, V domains shown, humanized) VH: EVQLVESGGGLVQPGGSLRLSCAASGFNFNTYVMNWVRQAPGKGLEWVGRIRTKSNNYATYYADSVKDRFTISRDDSKNSLYLQMNSLKTEDTAVYYCARGTITRLGGGLDYWGQGTLVTVSS VL: DIVMTQSPLSLPVTPGEPASISCRSSKRLLHSNGNTYLYWFLQKPGQSPQLLIYRMSNLASGVPDRFSGSGSGTAFTLKISRVEAEDVGVYYCMQHLEYPFTFGGGTKLEIK",binds
5,"Hu195H8D10-11 (antibody, V domains shown, humanized) VH: EVQLVESGGGLVQPGGSLRLSCAASGFNFNTYVMNWVRQAPGKGLEWVARIRTKSNNYATYYADSVKDRFTISRDDSKSSLYLQMNSLKTEDTAVYYCVSGTITRLGGGLDYWGQGTLVTVSS VL: DIVMTQSPLSLPVTPGEPASISCRSSKRLLHSNGNTYLYWYLQKPGQSPQLLIYRMSNLASGVPDRFSGSGSGTAFTLKISRVEAEDVGVYYCMQHLEYPFTFGGGTKLEIK",binds
6,"Hu200C9B9-13 (antibody, V domains shown, humanized) VH: EVQLVESGGGLVQPGGSLRLSCAASGFSFNTYVMNWVRQAPGKGLNWVARIRTKSNNYATFYVDSVKDRFTISRDDSENSLYLQMNSLKTEDTAVYYCVSGTITRLGAGLDYWGQGTLVTVSS VL: DIVMTQSPLSLPVTPGEPASISCRSSKSLLHSNGNTYLYWYLQKPGQSPQLLIYRMSNLASGVPDRFSGSGSGTDFTLKISRVEAEDVGVYYCMQHLEYPFTFGGGTKLEIK",binds
7,"Hu200C9B9-9 (antibody, V domains shown, humanized) VH: EVQLVESGGGLVQPGGSLRLSCAASGFSFNTYVMNWVRQAPGKGLNWVARIRTKSNNYATFYVDSVKDRFTISRDDSKNSLYLQMNSLKTEDTAVYYCVSGTITRLGAGLDYWGQGTLVTVSS VL: DIVMTQSPLSLPVTPGEPASISCRSSKSLLHSNGNTYLYWYLQKPGQSPQLLIYRMSNLASGVPDRFSGSGSGTDFTLKISRVEAEDVGVYYCMQHLEYPFTFGGGTKLEIK",binds
8,"Hu195H8D10-8 (antibody, V domains shown, humanized) VH: EVQLVESGGGLVQPGGSLRLSCAASGFNFNTYVMNWVRQAPGKGLEWVARIRTKSNNYATYYADSVKDRFTISRDDSKNSLYLQMNSLKTEDTAVYYCVSGTITRLGGGLDYWGQGTLVTVSS VL: DIVMTQSPLSLPVTPGEPASISCRSSKRLLHSNGNTYLYWFLQKPGQSPQLLIYRMSNLASGVPDRFSGSGSGTAFTLKISRVEAEDVGVYYCMQHLEYPFTFGGGTKLEIK",binds

# Next, values leading:
row,binding result,Binder
1,binds,"Hu195H8D10-16 (antibody, V domains shown, humanized) VH: EVQLVESGGGLVQPGGSLRLSCAASGFNFNTYVMNWVRQAPGKGLEWVARIRTKSNNYATYYADSVKDRFTISRDDSESSLYLQMNSLKTEDTAMYYCVSGTITRLGGGLDYWGQGTLVTVSS VL: DIVMTQSPLSLPVTPGEPASISCRSSKRLLHSNGNTYLYWFLQKPGQSPQLLIYRMSNLASGVPDRFSGSGSGTAFTLKISRVEAEDVGVYYCMQHLEYPFTFGGGTKLEIK"
2,binds,"Hu195H8D10-6 (antibody, V domains shown, humanized) VH: EVQLVESGGGLVQPGGSLRLSCAASGFNFNTYVMNWVRQAPGKGLEWVARIRTKSNNYATYYADSVKDRFTISRDDSKNSLYLQMNSLKTEDTAVYYCVSGTITRLGGGLDYWGQGTLVTVSS VL: DIVMTQSPLSLPVTPGEPASISCRSSKRLLHSNGNTYLYWFLQKPGQSPQLLIYRMSNLASGVPDRFSGSGSGTDFTLKISRVEAEDVGVYYCMQHLEYPFTFGGGTKLEIK"
3,binds,"Hu195H8D10-15 (antibody, V domains shown, humanized) VH: EVQLVESGGGLVQPGGSLRLSCAASGFNFNTYVMNWVRQAPGKGLEWVARIRTKSNNYATYYADSVKDRFTISRDDSESSLYLQMNSLKTEDTAMYYCVSGTITRLGGGLDYWGQGTLVTVSS VL: DIVMTQSPLSLPVTPGEPASISCRSSKRLLHSNGNTYLYWYLQKPGQSPQLLIYRMSNLASGVPDRFSGSGSGTAFTLKISRVEAEDVGVYYCMQHLEYPFTFGGGTKLEIK"
4,binds,"Hu200C9B9-7 (antibody, V domains shown, humanized) VH: EVQLVESGGGLVQPGGSLRLSCAASGFSFNTYVMNWVRQAPGKGLEWVARIRTKSNNYATFYVDSVKDRFTISRDDSKNSLYLQMNSLKTEDTAVYYCVSGTITRLGAGLDYWGQGTLVTVSS VL: DIVMTQSPLSLPVTPGEPASISCRSSKSLLHSNGNTYLYWYLQKPGQSPQLLIYRMSNLASGVPDRFSGSGSGTAFTLKISRVEAEDVGVYYCMQHLEYPFTFGGGTKLEIK"
5,binds,"Hu200C9B9-3 (antibody, V domains shown, humanized) VH: EVQLVESGGGLVQPGGSLRLSCAASGFSFNTYVMNWVRQAPGKGLEWVGRIRTKSNNYATFYVDSVKDRFTISRDDSKNSLYLQMNSLKTEDTAVYYCARGTITRLGAGLDYWGQGTLVTVSS VL: DIVMTQSPLSLPVTPGEPASISCRSSKSLLHSNGNTYLYWYLQKPGQSPQLLIYRMSNLASGVPDRFSGSGSGTAFTLKISRVEAEDVGVYYCMQHLEYPFTFGGGTKLEIK"
6,binds,"Hu200C9B9-4 (antibody, V domains shown, humanized) VH: EVQLVESGGGLVQPGGSLRLSCAASGFSFNTYVMNWVRQAPGKGLEWVGRIRTKSNNYATFYVDSVKDRFTISRDDSKNSLYLQMNSLKTEDTAVYYCARGTITRLGAGLDYWGQGTLVTVSS VL: DIVMTQSPLSLPVTPGEPASISCRSSKSLLHSNGNTYLYWFLQKPGQSPQLLIYRMSNLASGVPDRFSGSGSGTAFTLKISRVEAEDVGVYYCMQHLEYPFTFGGGTKLEIK"
7,binds,"Hu195H8D10-10 (antibody, V domains shown, humanized) VH: EVQLVESGGGLVQPGGSLRLSCAASGFNFNTYVMNWVRQAPGKGLEWVARIRTKSNNYATYYADSVKDRFTISRDDSKSSLYLQMNSLKTEDTAVYYCVSGTITRLGGGLDYWGQGTLVTVSS VL: DIVMTQSPLSLPVTPGEPASISCRSSKRLLHSNGNTYLYWFLQKPGQSPQLLIYRMSNLASGVPDRFSGSGSGTDFTLKISRVEAEDVGVYYCMQHLEYPFTFGGGTKLEIK"

# Source: US20250368744A1 (CONCEPT TO MEDICINE BIOTECH, published 2025)
